Results reported in PMC6265327.

Target: CMG assembled in vitro on roadblocked linear DNA from loaded MCM double hexamers and purified firing factors (yeast (strains based on W303)) (UniProt Q08032)
Assay: negative-stain EM with 2D classification; origin activation reconstituted with purified yeast proteins on bead-tethered linear DNA capped by covalent protein roadblocks; eluted by DNA digestion at a single site; particles counted in 2D class averages

percent of isolated (not train-incorporated) CMG particles bound by Pol epsilon: 2%
Substance: Pol epsilon used in the reconstituted origin activation (MCM train) reactions, P21951 1-2222; P24482 1-689; P27344 1-201; Q04603 1-196
